Publication PMC9663306

Assay: flow cytometry of surface IL-17RC, ST2 cells
Settings: glycan lost; control: SF-IL-17RCWT

B1: IL-17RC: SF-IL-17RCMutE (protein)
parent chain: MPVSWFLLSLALGRNPVVVSLERLMEPQDTARCSLGLSCHLWDGDVLCLPGSLQSAPGPVLVPTRLQTELVLRCPQKTDCALCVRVVVHLAVHGHWAEPEEAGKSDSELQESRNASLQAQVVLSFQAYPIARCALLEVQVPADLVQPGQSVGSAVFDCFEASLGAEVQIWSYTKPRYQKELNLTQQLPDCRGLEVRDSIQSCWVLPWLNVSTDGDNVLLTLDVSEEQDFSFLLYLRPVPDALKSLWYKNLTGPQNITLNHTDLVPCLCIQVWSLEPDSERVEFCPFREDPGAHRNLWHIARLRVLSPGVWQLDAPCCLPGKVTLCWQAPDQSPCQPLVPPVPQKNATVNEPQDFQLVAGHPNLCVQVSTWEKVQLQACLWADSLGPFKDDMLLVEMKTGLNNTSVCALEPSGCTPLPSMASTRAARLGEELLQDFRSHQCMQLWNDDNMGSLWACPMDKYIHRRWVLVWLACLLLAAALFFFLLLKKDRRKAARGSRTALLLHSADGAGYERLVGALASALSQMPLRVAVDLWSRRELSAHGALAWFHHQRRRILQEGGVVILLFSPAAVAQCQQWLQLQTVEPGPHDALAAWLSCVLPDFLQGRATGRYVGVYFDGLLHPDSVPSPFRVAPLFSLPSQLPAFLDALQGGCSTSAGRPADRVERVTQALRSALDSCTSSSEAPGCCEEWDLGPCTTLE
- localisation_or_trafficking: decreases
